Assay [1] has as its target endogenous Dvl of HEK293 cells. In words: cell-based or functional assay.
For assay [2], the target named is T1, Myc-tagged mNkd protein, in vitro translated (mouse, UniProt Q99MH6 1-471, labelled with 35S-methionine).
T1 construct: Made with the TNT coupled reticulocyte lysate system in the presence of 35S-methionine; also called Myc-mNkd; 35S-mNkd; not shown: Myc tag
T1 sequence: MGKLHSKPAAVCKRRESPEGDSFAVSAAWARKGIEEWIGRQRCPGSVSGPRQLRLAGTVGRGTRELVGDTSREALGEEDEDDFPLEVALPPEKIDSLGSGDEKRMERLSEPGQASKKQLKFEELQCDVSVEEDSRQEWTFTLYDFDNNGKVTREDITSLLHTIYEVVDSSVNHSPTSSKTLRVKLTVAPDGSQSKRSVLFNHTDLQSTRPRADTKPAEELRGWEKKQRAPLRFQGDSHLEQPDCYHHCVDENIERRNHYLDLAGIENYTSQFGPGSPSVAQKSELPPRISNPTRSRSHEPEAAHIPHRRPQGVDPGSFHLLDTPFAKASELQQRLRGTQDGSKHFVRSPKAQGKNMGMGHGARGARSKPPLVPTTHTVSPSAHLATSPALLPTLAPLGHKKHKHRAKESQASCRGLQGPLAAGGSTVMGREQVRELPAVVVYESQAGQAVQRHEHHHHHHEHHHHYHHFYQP
In words: GST pull-down, electrophoresis and autoradiography.

Molecule “Xpress tagged mNkd (from UniProt Q99MH6 1-471)” gave an inhibition of the activation of the LEF-1 luciferase reporter by Wnt in HEK 293 cells in assay [1] of 75%.

B1: GST fusion of the PDZ domain of Drosophila Dvl (other, UniProt P51140 252-324, looked up)
chain: TVSINMEAVNFLGISIVGQSNRGGDGGIYVGSIMKGGAVALDGRIEPGDMILQVNDVNFENMTNDEAVRVLRE
notes: domain: PDZ; also called PDZ domain alone; not shown: glutathione-S-transferase (GST)
With B1, in assay [2], the binding result is listed as “no binding”.
